Results as given in paper PMC7311918, “Structures of Human Antibodies Bound to SARS-CoV-2 Spike Reveal Common Epitopes and Recurrent Features of Antibodies” (Cell, 2020).
Where “and” joins values, the source holds several entries; their conditions need not be identical. Identical values can stand only once.

Molecular target: T1, SARS-CoV-2 S 2P trimer (S ectodomain, residues 16-1206) (SARS-CoV-2, early isolate GenBank …, UniProt P0DTC2, stabilised)
T1 construct: also called SARS-CoV-2 S protein; SARS-CoV-2 S trimer
Test: cryo-EM structure
Conditions: both partners purified

B1: C105 Fab (Fab, V domains shown)
VH: QVQLVESGGGLIQPGGSLRLSCAASGFTVSSNYMSWVRQAPGKGLEWVSVIYSGGSTYYADSVKGRFTISRDNSKNTLYLQMNSLRAEDTAVYYCARGEGWELPYDYWGQGTLVTVSS
VL: QSALTQPPSASGSPGQSVTISCTGTSSDVGGYKYVSWYQQHPGKAPKLMIYEVSKRPSGVPDRFSGSKSGNTASLTVSGLQAEDEADYYCSSYEGSNNFVVFGGGTKLTVL
notes: also called mAb C105
- stoichiometry N: 2 Fabs per S trimer and 3 Fabs per S trimer
